Experimental data reported in US20200325231A1 (CURATORS OF THE UNIVERSITY OF MISSOURI, published 2020).
Ends that are not written are not given here. * marks the point of attachment. Biotin = O=C1N[C@H]2[C@H](CS[C@H]2CCCCC(=O)*)N1

Target: T1, Programmed Cell Death Ligand 1 (PD-L1) (human, UniProt Q9NZQ7 19-290)
T1 construct: whole, on cells; Endogenous PD-L1 on cells or in fixed tissue sections; No recombinant PD-L1 was used; also called CD274
Test: IHC on FFPE placenta, biotinylated peptide, streptavidin-HRP/DAB
Text: To detect PD-L1 in FFPE tissues, manual IHC techniques were employed with a biotin-conjugated version of peptide RK-10-Cy5 and compared with Ventana PD-L1 (SP263) Rabbit monoclonal Primary Antibody stained on a Roche Benchmark Ultra autostainer. Seven PD-L1 expressing NSCLC patient tissues were obtained from the MU OneHealth tissue bank and de-identified according to IRB protocols. Paraffin-embedded patient tissue slides were baked overnight, then de-waxed and rehydrated according to standard protocols. Tissue sections were then subjected to antigen retrieval in EDTA at 95° C. for 20 minutes in EDTA […]. The solution is then cooled for an additional 20 minutes on the bench top prior to buffer rinse. Tissues were then incubated with 15 biotinylated peptide for 2 hours in a humid chamber at RT. After 2 hours, slides were washed with buffer and treated with PIERCE™ High Sensitivity Streptavidin-HRP (1:200 dilution) (Sigma) for 30 minutes at RT in a humid chamber. Once this was complete, slides were again washed in buffer then treated with DAB (3,3′-Diaminobenzidine; Sigma) for 10 minutes. Slides were again washed in buffer, then dehydrated using graded alcohol and xylene and counterstained with hematoxylin. Slides were then imaged using bright-field microscopy on a Leica DM5500. […]

T1 sequence (Q9NZQ7 19-290): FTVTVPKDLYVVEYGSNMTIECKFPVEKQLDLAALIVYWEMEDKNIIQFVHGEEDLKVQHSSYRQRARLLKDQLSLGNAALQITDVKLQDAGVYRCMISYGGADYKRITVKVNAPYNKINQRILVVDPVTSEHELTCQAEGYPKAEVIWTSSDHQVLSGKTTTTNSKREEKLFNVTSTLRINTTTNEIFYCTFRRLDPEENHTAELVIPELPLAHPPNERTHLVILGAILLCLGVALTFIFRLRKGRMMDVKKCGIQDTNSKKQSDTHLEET

B1: RK-11-Biotin (biotinylated mock peptide) (peptide)
peptide: Biotin-GSGSGSFVLNWYRMSPSNQTDKLAA
notes: also called Mock peptide RK-11-Biotin
- binding result: binds
